The results in this text go back to US20070276130A1 (CHILDREN S MEDICAL CENTER, published 2007).

For data set [1], the target named is VP5CT of rhesus rotavirus (RRV) VP4 (rhesus rotavirus (RRV)) (UniProt P12473). Put plainly: X-ray crystal structure.
The data set “X-ray crystal structure” deals with the molecule itself. Briefly: X-ray crystal structure.
Data set [2] deals with the molecule itself. Put plainly: X-ray crystal structure (crystal packing).
Data set [3] deals with T1, DS-1 VP8* core with residues 60-64 mutated to SGSGG (human rotavirus strain DS-1, UniProt P11196 65-223 (Rotavirus A entry)).
T1 construct: That conversion is mine; also called modified DS-1 VP8* core; unlabeled VP8* core
T1 chain: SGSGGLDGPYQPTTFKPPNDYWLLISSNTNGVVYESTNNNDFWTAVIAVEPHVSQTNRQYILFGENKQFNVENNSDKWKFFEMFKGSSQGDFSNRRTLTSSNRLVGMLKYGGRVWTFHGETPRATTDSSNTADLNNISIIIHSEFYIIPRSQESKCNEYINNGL
Put plainly: two-dimensional 15N-1H HSQC NMR; no change in the chemical shifts of the 15N valines of the peptide.
From the text: We used nuclear magnetic resonance (NMR) spectroscopy to assay the binding in solution of a peptide based on the leader to the potential peptide binding cleft. […] To avoid competition between the peptide and residues of the authentic N-terminal leader of the unlabeled VP8* core, residues 60-64 of the core were mutated to SGSGG using PCR.

Substitutions are numbered along the chain they refer to. Ends that are not written are not given here.

As for “VP5CT of rhesus rotavirus (RRV) VP4 (from UniProt P12473 248-525)”, in data set [1], the share of the surface area of each subunit buried by trimer contacts was 25.8% and the surface area of each subunit buried by trimer contacts is 3960 Å2.

B1: RRV VP5* antigen domain (residues 247-479 of rhesus rotavirus VP4) (other)
chain: RAQANEDIVVSKTSLWKEMQYNRDITIRFKFASSIVKSGGLGYKWSEISFKPANYQYTYTRDGEEVTAHTTCSVNGMNDFNFNGGSLPTDFVISRYEVIKENSYVYVDYWDDSQAFRNMVYVRSLAANLNSVICTGGDYSFALPVGQWPVMTGGAVSLHSAGVTLSTQFTDFVSLNSLRFRFRLTVEEPSFSITRTRVSRLYGLPAANPNNGKEYYEVAGRFSLISLVPSNDD
notes: Expressed in Sf-9 cells from a baculovirus with an N-terminal histidine tag and a thrombin site; It crystallised both as a trimer and as a dimer, so copies is left open; also called VP5Ag; VP5* antigen (R247-D479)
B1: in “X-ray crystal structure”, the binding result is reported as “binds”.

B2: DS-1 VP8* core (residues 60-223 of DS-1 VP4) (other)
chain: T1 chain with S1T, G2V, S3E, G4P, G5V
notes: There are eight molecules in the asymmetric unit of the P1 crystal
On to B2, for which the binding result in data set [2] is recorded as “binds”.

B3: peptide TVEPVS (DS-1 VP4 residues 60-64 plus a C-terminal serine) (peptide)
peptide: TVEPVS
modifications: also: 15N-labelled on valine, position not given here
notes: also called leader peptide; assayed peptide
As for B3, the binding result in data set [3] is “no binding”.
